Assay results published in article doi:10.1101/2022.06.29.498065v2.

Test system: Nc1ncnc2c1ncn2[C@@H]1O[C@H](COP(=O)(O)OP(=O)(O)OP(=O)(O)O)[C@@H](O)[C@H]1O
Assay: purified protein
Settings: pH 7.0; 30.0 °C

## KFDV NS5 (Kyasanur Forest disease virus)
  Km: 42.15 ± 5.81 µM
